This is an account of results in US20210238276A1 (INTEGRAL MOLECULAR, published 2021).

Changes are numbered by the printed parent chain.

Holding throughout (test): flow cytometry, alanine-scan library in HEK-293T
In general terms: Flow cytometry measures light scatter and fluorescence of single cells or particles in a stream.

Test [1] concerns the target T1, hsGLUT4 E507A (human, UniProt P14672 1-509).
T1 sequence: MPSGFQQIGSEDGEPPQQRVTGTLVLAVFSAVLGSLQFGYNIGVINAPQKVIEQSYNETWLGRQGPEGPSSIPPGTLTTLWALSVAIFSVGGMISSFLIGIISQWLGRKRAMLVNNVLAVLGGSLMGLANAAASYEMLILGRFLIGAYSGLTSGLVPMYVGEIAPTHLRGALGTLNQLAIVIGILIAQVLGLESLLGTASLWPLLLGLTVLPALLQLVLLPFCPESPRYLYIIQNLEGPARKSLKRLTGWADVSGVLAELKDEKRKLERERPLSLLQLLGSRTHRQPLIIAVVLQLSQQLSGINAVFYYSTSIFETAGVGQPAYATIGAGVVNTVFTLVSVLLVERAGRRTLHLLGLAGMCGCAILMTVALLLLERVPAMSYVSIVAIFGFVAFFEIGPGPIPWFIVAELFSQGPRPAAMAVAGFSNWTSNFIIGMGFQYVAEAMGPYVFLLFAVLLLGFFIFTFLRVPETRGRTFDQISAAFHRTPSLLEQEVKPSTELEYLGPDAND
The essentials:
(§1)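 HEK-293T cells expressing individual GLUT4 alanine mutants were stained 48 h post-transfection with anti-GLUT4 scFv MAbs (2 μg/ml), then biotinylated secondary and streptavidin-PerCP, and read by high-throughput flow cytometry. Where used, cytochalasin B (10 uM final) was given for 30 min before and during primary antibody staining.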

For test [2], the target named is T2, hsGLUT4 L61A (human, UniProt P14672 1-509).
T2 sequence: T1 sequence with L61A, A507E
An outline of the steps: as §1

Test [3] has as its target T3, hsGLUT4 M158A (human, UniProt P14672 1-509).
T3 sequence: T1 sequence with M158A, A507E
The essentials: as §1

Test [4] addresses T4, hsGLUT4 M112A (human, UniProt P14672 1-509).
T4 sequence: T1 sequence with M112A, A507E
The essentials: as §1

Take 1F8 (antibody): the % of binding to wild type GLUT4 in test [1] is 127%; in test [2], 90%; in test [3] it was 95%; in test [4], 120%.

B1: AB108 (Fc fusion)
scFv: ALTQPSSVSANLGGTVKITCSGSSGSYGWYQQKAPGSAPVTLIYRNDKRPSDIPSRFSGSESGSTGTLTITGVQAEDEAVYFCGGYDSSAGYAAFGAGTTLTVLGQSSRSSGGGGSSGGGGSAVTLDESGGGLQTPGGALSLVCKASGFTFSSHGMGWVRQAPGKGLEWVGSISTGRYTFYAPAVKGRATISRDNGQSTLRLQLNNLRAEDTGTYYCTKCAGLNGCGGGEIDAWGHGTEVIVSS
notes: Bivalent scFv-Fc; also called MAb AB108; not shown: Fc fragment of human IgG1, cloned in frame with the scFv
In the case of B1, the “% of binding to wild type GLUT4” value is 53% in test [1], 13% in test [2], 110% in test [3] and 57% in test [4].

B2: AB111 (Fc fusion)
scFv: ALTQPSSVSANPGETVKITCSGSGSWYGWFQQKSPGSAPVTVIYSNDKRPSDIPSRFSGSKSGSTSTLTITGVQVEDEAVYYCGNWDIFGAGTTLTVLGQSSRSSGGGGSSGGGGSAVTLDESGGGLQTPGGALSLVCKASGFTFSSHGMGWVRQAPGKGLEWVASISTGRYTFYAPAVKGRATISRDNGQSTVRLQLNNLRAEDTATYYCTKCAGLNGCGGGEIDAWGHGTEVIVSS
notes: Bivalent scFv-Fc; also called MAb AB111; not shown: Fc fragment of human IgG1, cloned in frame with the scFv
As for B2, the “% of binding to wild type GLUT4” value amounted to 119% in test [1], 80% in test [2], 107% in test [3] and 79% in test [4].

B3: AB101 (scFv)
scFv: ALTQPSSVSANPGETVKITCSGSSNSYGWYQQKSPGSAPVTVIYYNDKRPSDIPSRFSGSKSDSTHTLTITGVRAEDEAVYFCGSYDSTYVGIFGAGTTLTVLGQSSRSSGGGGSSGGGGSAVTLDESGGGLQTPGGTLSLVCKASGFTFSSNAMGWVRQAPGKGLEWVAGISSDGRYTKYGSAVKGRATISRDNGQSTVRLQLNNLRAEDTGTYFCAKAFGNNYRRIYAGQIDAWGHGTEVIVSS
notes: Chicken-derived clone used as a control; the four lead clones were tested as scFv-human IgG1 Fc; also called MAb AB101
B3: the “% of binding to wild type GLUT4” value turned out to be 5% in test [1], 115% in test [2], 126% in test [3] and 103% in test [4].
